Measurements reported in patent US20180305460A1.

How the values were obtained:
[1] = target: interferon-alpha/β receptor (IFNAR) (human) (UniProt P17181)
[2] = target: interferon-alpha/β receptor (IFNAR) (human) (UniProt P17181); remark: listed apart in the source
[3] = target: interferon-alpha/β receptor (IFNAR) (human) (UniProt P17181); remark: listed apart in the source

Chain of interferon-alpha/β receptor (IFNAR) (human) (P17181 28-557 limits assumed): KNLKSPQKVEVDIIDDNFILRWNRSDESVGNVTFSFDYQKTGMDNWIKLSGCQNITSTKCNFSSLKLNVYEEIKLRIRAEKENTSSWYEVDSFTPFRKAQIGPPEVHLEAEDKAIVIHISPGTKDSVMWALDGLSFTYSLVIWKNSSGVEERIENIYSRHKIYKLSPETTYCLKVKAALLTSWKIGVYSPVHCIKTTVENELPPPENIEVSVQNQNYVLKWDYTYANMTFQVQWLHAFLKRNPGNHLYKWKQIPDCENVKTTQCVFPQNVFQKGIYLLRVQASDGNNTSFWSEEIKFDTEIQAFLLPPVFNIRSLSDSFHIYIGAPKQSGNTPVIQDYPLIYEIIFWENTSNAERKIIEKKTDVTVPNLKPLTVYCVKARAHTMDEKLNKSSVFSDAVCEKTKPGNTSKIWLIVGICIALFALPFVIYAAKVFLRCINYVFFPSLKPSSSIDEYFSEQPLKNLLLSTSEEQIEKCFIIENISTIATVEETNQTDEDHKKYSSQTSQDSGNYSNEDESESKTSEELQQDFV

Substance: Intron A (ligand)
- EC50; HEK-Blue IFN-alpha/β SEAP reporter (A630nm), left panel, the unit comes from the x axis 'Ifnα2b Equivalents in pM' [1]: 1.13 pM
- EC50; HEK-Blue IFN-alpha/β SEAP reporter (A630nm), right panel, the unit comes from the x axis 'IFNα2b equivlaents in pM' [1]: 1.52 pM
- half-maximal concentration headed 'IC50 pM' on the sheet (paragraph 233 calls the values EC50; the curves rise); iLite IFN-response-element luciferase reporter (RLU) [2]: 0.0645 pM
- EC50; HEK-Blue IFN-alpha/β SEAP reporter (A630) on CD38-negative cells; table column headed 'IFNa2b', curve labelled 'Intron A', the unit comes from the x axis 'IFN pM' [3]: 1.52 pM
